Reference: the supplement of paper PMC9170038

How the values were obtained:
MS2 coat protein [1] = experiment: apparent KD of MS2 coat protein, switch ON state; designed switch direction (-1 OFF switch, 1 ON switch): -1; higher = weaker reporter binding; details: FMN input: 0 or 200 uM; Eterna round: R93 (includes R88 designs)
Outline: (§1)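 Designed RNA switches were transcribed on-chip from Illumina sequencing clusters. They were then titrated with SNAP-549-labelled MS2 coat protein (twofold steps, 0.7 or 1.5 nM to 3 µM; 0.8–1.5 h to 10–20 min per step) in 100 mM Tris-HCl pH 7.5, 80 mM KCl, 4 mM MgCl2, without or with constant ligand. Apparent KD is the per-design median of normalised cluster binding-curve fits.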

MS2 coat protein [2] = experiment: apparent KD of MS2 coat protein, switch OFF state (with FMN for OFF switches, without FMN for ON switches); designed switch direction (-1 OFF switch, 1 ON switch): -1; higher = weaker reporter binding; details: FMN input: 0 or 200 uM; Eterna round: R93 (includes R88 designs)
Outline: as §1

| Sequence | apparent KD of MS2 coat protein (MS2 coat protein [1]) [nM] | apparent KD of MS2 coat protein (MS2 coat protein [2]) [nM] |
| --- | --- | --- |
| CAUUCACAUGAGGAUCACCCAUGUAAGGAUAUCGAAAUAAAACUAAUCAAUAAACAAACGAGAAGGUACAAAAA [Exclusion 1 design 9] | 26 | 21.2 |
| CCCAUGUCAGGAUAUCAGUAGUAAAAAAAAAAAAUUACUACUGAGAAGGGACAUGAGGAUCACCCAUGUUCCAA [EX4 318: Super Stable 18] | 58.3 | 53 |
| AAAACACAUGAGGAUCACCCAUGUGAGGAUAUGCAAAACCCAUAUAAAAAGGGAAAAAGCAGAAGGCACAAAAA [wbt round 1 mod 12] | 22.4 | 27.8 |
| AGGAAACAUGAGGAUCACCCAUGUCAGGAUAUACAAAAGAAAAGAAAAGAAAGAAGAAGUAGAAGGGACACGAA [Double Falcon] | 25.1 | 22.5 |
| ACAGUUACAGGAUAUACAAGGGUAACUUCAAAUAAACCUCUACAUGAGGAUCACCCAUGUAGAAGGGUAACUGA [Ex2 Design 200 (maybe): Random 16] | 22.8 | 21.7 |
| GAAAAUGGAGGAUAUACAUGAGGAUCACCCAUGUGUAAAAAAAAUUACACAAAAGAAAGUAGAAGGCCAUAAAG [Mat - Exclusion 3 - Mayanna mod - D106] | 49.8 | 138 |
| AACAGUACAGGAUAUACAUGAGGAUCACCCAUGUGAGAAUUAAGUGGAGAACCACAAAGUAGAAGGGUACUGAA [Mat - Exclusion 3 - JL mod - D8] | 39.2 | 147 |
| CUUAGACAUGAGGAUCACCCAUGUGAGGAUAUGAUGCGAAUAAAGAAAGAAGAAAGCAUCAGAAGGCACAUAUG | 41.3 | 545 |
| AAGAAGUGAGGAUAUCGAAGACUGUCGAAAAGACAGUCGAACGAGAAGGCACAUGAGGAUCACCCAUGUGAUAA [Mat - Exaclusion 4 - Eli mod - D70] | 28.2 | 107 |
| AACCAACAUGAGGAUCACCCAUGUCAGGAUAUGCAAACAACAAACAACAAACAACAAAGCAGAAGGGACAAAAA [Amethyst 82] | 17.8 | 19.5 |
| AAAAAACAUGAGGAUCACCCAUGUCAGGAUAUGAACGAAAAUAAAUAAAAAUAAAAGUUCAGAAGGGACGAAAA [66%, Wbt, 17] | 38 | 41.5 |
| AAAAAGGUAGGAUAUACAUGAGGAUCACCCAUGUCGCGGCGCGCGGACAGCCCGCCCUGUAGAAGGACCAAAAA [Default title] | 35 | 28.6 |
| CAAUCUGCAGGAUAUACAUGAGGAUCACCCAUGUAAGGACAAUAAAUAAGAAGAAGAAGUAGAAGGGCAGACAA [e3] | 27.5 | 29.2 |
| AAGAACAGAGGAUAUACUAAAGAAAUGAAAAGAAAGAAAGAACAUGAGGAUCACCCAUGUAGAAGGCUGAAGAA [Yakbim Sekhaenre] | 25.9 | 13.5 |
| AAGUUAUUAGGAUAUACUAGUGCAAUUAAUACGCUGAUAGUACAUGAGGAUCACCCAUGUAGAAGGAAUAAAAA [Mat - Exclusion 2 - JL mod - D66] | 30.5 | 20.6 |
| AGUUGGCGAGGAUAUACAUGAGGAUCACCCAUGUGAAAGAAAAAAGUGAAAAAGAAAAGUAGAAGGCGCUGACA [73%, Moding Norbert Elias, 4] | 31.3 | 131 |
| CUCUUGUGAGGAUAUCUAAGAAAAGAAAAGAAAGAAAAGAAAGAGAAGGCACAUGAGGAUCACCCAUGUAAGAA [EteRNA is fun!] | 35.7 | 84.6 |

| Sequence | apparent KD of MS2 coat protein (MS2 coat protein [1]) [nM] | apparent KD of MS2 coat protein (MS2 coat protein [2]) [nM] |
| --- | --- | --- |
| AACAGUACAGGAUAUACAUGAGGAUCACCCAUGUAAAAUAAAUAAAAAUAAAAAGGAAGUAGAAGGGUACUGGA [Moding Maslow revisited (73) 18] | 30.1 | 26.4 |
| AAGGGACAUGAGGAUCACCCAUGUCAGGAUAUGCGAAAAAAAAAAAUAAAAAAAAAAAGCAGAAGGGACACCAA [Mat - Exclusion 1 - Eli mod - D58] | 104 | 102 |
| ACGUUGAGAGGAUAUACGAACAUGUCAAAAGACGUGAAGGGACAUGAGGAUCACCCAUGUAGAAGGCUCAACGA [Mat - Exclusion 2 - JL mod - D9] | 46.3 | 186 |
| AAAAACCUAGGAUAUACAUGAGGAUCACCCAUGUAAAGAAACAAAAAGGGAAACACAAGUAGAAGGAGGAAGAA [JR_Exc003_Sub1203] | 22.6 | 27.4 |
| AAAUGACUAGGAUAUACAUGAGGAUCACCCAUGUGUUAAAAUAAAUACACAAAAGAAAGUAGAAGGAGUCAAAG [Mat - Exclusion 3 - Mayanna mod - D125] | 21.5 | 43.4 |
| GAAGAACAUGAGGAUCACCCAUGUCAGGAUAUGAAUAACGGAAUAAUACGUUAUGGAAUCAGAAGGGACAAGAA [Ex 1 May 52] | 48.9 | 59.4 |
| AAGAUCAGAGGAUAUACAUAAGGUGAUGGAAACAUCGCCAAACAUGAGGAUCACCCAUGUAGAAGGCUGAUCAA [Mat - Exclusion 2 - JL mod - D61] | 35.7 | 43.7 |
| CUCAUGUGAGGAUAUGUACAGAAAAAAAUGGGUGAAACUGUACAGAAGGCACAUGAGGAUCACCCAUGUGCCAA [EX4 376: S S Pseudoknot 1] | 52.2 | 16.3 |
| AUCUAGUCAGGAUAUGACUACAUAAAAAAUAAAAAAUGUAGUCAGAAGGGACAUGAGGAUCACCCAUGUACUAA [Mat - Exclusion 4 - Eli mod - D95] | 26.3 | 29.3 |
| AACAGUACAGGAUAUACAUGAGGAUCACCCAUGUGAAAAUUAAGUGGGAAACCACAGUGUAGAAGGGUACUGGA [Mat - Exclusion 3 - Eli mod - D54] | 102 | 51.9 |
| AAAACACAUGAGGAUCACCCAUGUGAGGAUAUGCUAGUGAAAAUAAAAAUAAAACAUAGCAGAAGGCACAAGGA [Amethyst 79] | 43.7 | 45.8 |
| GGAAAACAUGAGGAUCACCCAUGUAAGGAUAUGCUAAAAAAAAAAAAAAACCCACCAGGCAGAAGGUACUAAAG [Janelle Amethyst 18 Mod 2 - Jieux - Exclusion 1] | 20.4 | 26.8 |
| AAAAAGUGAGGAUAUUCGGAUAGGAAAACGAAAACCUAUCCGAAGAAGGCACAUGAGGAUCACCCAUGUAAAGA [Mat - Exaclusion 4 - Eli mod - D40] | 30.8 | 40.2 |
| GGUUGGCGAGGAUAUACAUGAGGAUCACCCAUGUGAGAGAAAAAAGUGAGAAACAAAAGUAGAAGGCGCUGACG [salish99-ex3-26] | 79.8 | 657 |
| AACGGGCUAGGAUAUACACAAGCCUCAUAACAAAUAAACAAACAUGAGGAUCACCCAUGUAGAAGGAGCGCAAA [Quraaon] | 33 | 72.5 |
| AAAAAGAGAGGAUAUACAUGAGGAUCACCCAUGUGAAAGACGAAAAAAAGUCUAAAGUGUAGAAGGCUCAAAAA [65%, Moding Exclusion3-cac2, 14] | 25.3 | 104 |
